Values belong to the binder of their own block, whether it stands above or below them.
Experiments:
Experiment in all cases: SPR; biotinylated phosphopeptides immobilised on streptavidin chip (about 25 RU single, 50 RU tandem motifs); soluble recombinant protein injected; 37°C; HBS-EP; equilibrium binding (Table 4; same-day purification not given)
[1] = molecular target: CD244 ITSM2 phosphopeptide (human)
[2] = molecular target: CD244 ITSM3 phosphopeptide (human)
[3] = molecular target: CD244 ITSM4 phosphopeptide (human)

Kd [1]: 2300 nM
Kd [2]: 2200 nM
Kd [3]: 5600 nM
B1: SHIP SH2 (SH2 domain from human SHIP-1) (domain or fragment)
chain: WNHGNITRSKAEELLSRTGKDGSFLVRASESISRAYALCVLYRNCVYTYRILPNEDDKFTVQASEGVSMRFFTKLDQLIEFYKKENMGLVTHLQYPV

Kd [1]: 60 nM
Kd [2]: 70 nM
Kd [3]: 40 nM
B2: EAT-2 (recombinant full-length human EAT-2) (natural protein)
chain: MDLPYYHGRLTKQDCETLLLKEGVDGNFLLRDSESIPGVLCLCVSFKNIVYTYRIFREKHGYYRIQTAEGSPKQVFPSLKELISKFEKPNQGMVVHLLKPIKRTSPSLRWRGLKLELETFVNSNSDYVDVLP

Kd [1]: 24000 nM
B3: SHP-2 N-terminal + C-terminal (N+C) SH2 domains (domain or fragment)
chain: TSRRWFHPNITGVEAENLLLTRGVDGSFLARPSKSNPGDFTLSVRRNGAVTHIKIQNTGDYYDLYGGEKFATLAELVQYYMEHHGQLKEKNGDVIELKYPLNCADPTSERWFHGHLSGKEAEKLLTEKGKHGSFLVRESQSHPGDFVLSVRTGDDKGESNDGKSKVTHVMIRCQELKYDVGGGERFDSLTDLVEHYKKNPMVETLGTVLQLKQPLNTT
